Laboratory results published in the nanobody polyreactivity screen of Harvey et al. (2022).

assay: yeast display, Sf9 membrane polyspecificity reagent, FACS + sequencing; frameworks hold sequencing errors
How it was run: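 Polyreactivity labels are assigned by the sorting gate from which each nanobody was recovered. The gates were low and high (top ~1%), set on anti-HA fluorescence for expression and streptavidin fluorescence for reagent binding. Before sorting, galactose-induced (36–48 hours) yeast display cells were stained for 1 hour at 4 °C with 10% biotinylated, detergent-solubilized Sf9 membrane reagent.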

Row | Sequence | polyreactivity (PSR sort gate)
1 | QVQLVESGGGLVQAGGSLRLSSAASGRIFQLYTMGWYRQAPGKEREMVAAITSGTSTSYADSVKGRFTISRDNAKNSVYLQMNSLKPEDTAVYYCNKGSVSYCSVFVPYESDYWGQGTQVTVSS | low polyreactivity
2 | QVQLVESGGGLVQAGGSLRLSSAASGRIFRINAMGWYRQAPGKERELVADITSGGSTNYADSVKGRFTISRDNAKNTVYLQMNSLKPEDTAVYYCAAAYVTYRTRLDYWGQGTQVTVSS | low polyreactivity
3 | QVQLVESGGGLVQAGGSLRLSSAASGRIFRPYDMGWYRQAPGKERELVAAITQSGGITSYADSVKGRFTISRDNAMNTVYLQMNSLTPEDTAVYYCASTSRYTRSHYDWYDYWGQGTQVTVSS | low polyreactivity
4 | QVQLVESGGGLVQAGGSLRLSSAASGRIFRRNTMGWYRQAPGKERELVAAITYSGGSTYYADSVKGRFTISRDNAKNTVYLQMNSLKPEDTAVYYCAADTGFYYWYDYWGQGTQVTVSS | low polyreactivity
5 | QVQLVESGGGLVQAGGSLRLSSAASGRIFSDNVMGWYRQAPGKERELVATITSTGGTYYADSVKGRFTISRDNAKNTVYLQMNSLKPEDTAVYYCNKATLADWWLYPRYNYWGQGTQVTVSS | low polyreactivity
6 | QVQLVESGGGLVQAGGSLRLSSAASGRIFSINVMGWYRHAPGKERELVAAISKRGGSTYYADSVKGRFTISRDNAKNTVYLQMNSLKPEDTAVYYCAVDRYSTDRVKTSYGYDYWGQGTQVTVSS | high polyreactivity
7 | QVQLVESGGGLVQAGGSLRLSSAASGRIFTINAMGWYRQAPGKERELFASSRSTGGSTYYADSVKGRFTISRDNAKNTFYLQMYSLKPVDTAVYYCDAQYANSIDYRSSYRRDYWGQGTQVTVSS | low polyreactivity
8 | QVQLVESGGGLVQAGGSLRLSSAASGRIFYFNARGWYRQAPGKARELVAGISSGGSTDYADSVKGRFTISRDNAKNTVDLQMNSLKPEDTAVYYCATRRSRYSYSGYWGQATQVTVSS | high polyreactivity
9 | QVQLVESGGGLVQAGGSLRLSSAASGRIFYRNAMGWYRQAPGKERELVASITSGGRTNYADSVKGRFTFSRDNAKNTVYLHMNSLKPEDTAVYYCAAPPPYSVRTFRFYYWGQGTQVTVSA | high polyreactivity
10 | QVQLVESGGGLVQAGGSLRLSSAASGRTFEGYAMGWYRQAPGKERELVAAISGSSGSTYYADSVKGRFTISRDNAKNTVYLQMNSLKPEDTAVYYCNADYDWPGGSDYWGQGTQVTVSS | low polyreactivity
11 | QVQLVESGGGLVQAGGSLRLSSAASGRTFFGYAMGCYRQAPGTERELVAVISYSDGSTYYADSVKGRFTISRDNAKNTVYLQMNSLKPEDTAVYYCNARSRVGNSGADYDYWGQGTQETVSS | low polyreactivity
12 | QVQLVESGGGLVQAGGSLRLSSAASGRTFGFYAMGCYRQAHGKERELVATISSSGGSTYYADSVKGRFTISRDNAKNTVYLQMNRLTPEDTAVYYCAKVVSVWRSHYIGDYWGQGSQVTVSS | low polyreactivity
13 | QVQLVESGGGLVQAGGSLRLSSAASGRTFGKYAMGWYRQAPGKESELVAAITNSGGSTYYADSVKGRFTISRDNAKNTVYLQMISLKPEDTAVYYCNRLGYRGPSILNHMGYWGQGTQVTVSS | high polyreactivity
14 | QVQLVESGGGLVQAGGSLRLSSAASGRTFPTYTIGGYRQAPGKERELVAAITRGGSTKYADSVKGRFTISRDNAKNTVYLQMNSLKPEDTAVYYCAAVYRYRHSFAYYRHEMDYWGQGTQVTVSS | low polyreactivity
15 | QVQLVESGGGLVQAGGSLRLSSAASGRTFSRYVMGWSRQAPGKERELVATISRSGGSTFYADSVKGRFTISRDNAKNTVYLQMNSLKPEDTAVYYCNKKVQGYQVTYGYWGQGTQVTVSS | high polyreactivity
16 | QVQLVESGGGLVQAGGSLRLSSAASGRTFWNNAMGWYRQAPGKERELVAAITSGGRTNYADSVKGRFTISRDNAKNTVYLQMNSLKPEDTAVYYCAAVGYVIYDYWVQGTQVTVSS | low polyreactivity
17 | QVQLVESGGGLVQAGGSLRLSSAASGRTFYFYAMGWYRQAPGKERELVADIRGITGSTYYADSVKGRFTISRDNAKNTVYLQMNSLKPEDTAVYYCNAYPYIARAPYEYWGQGTQVTVSS | high polyreactivity
18 | QVQLVESGGGLVQAGGSLRLSSAASGRTFYSNAMGWSRQAPGKERELVAAITSTDDSTYYADSVKGRFTISRDNAKNTVYLQMNSLKPEDTAVYYCNTDGLIAIRCVWWVEYDYWGQGTQVTVSS | low polyreactivity
19 | QVQLVESGGGLVQAGGSLRLSSAASGRTGVNAMGWDRHAPGKERELGAAINNGDSTYYADSVKGRFTISRDNAKNTVYLQMNSLTPEDTAVYDCAAGLDEGDYWQESDYWGQGTQVTVSS | low polyreactivity
20 | QVQLVESGGGLVQAGGSLRLSSAASGRTLVNYAMGCYRQAPGKERELVAAISYSGGSTYYADSVKGRFTISRDYAKNTVYLQMNSLKPEDTAVYYCAAYYYQRYDYWGQGTQVTVSS | high polyreactivity

Row | Sequence | polyreactivity (PSR sort gate)
21 | QVQLVESGGGLVQAGGSLRLSSAASGRTYNVYAMGWSRQAPGKERELVAGITRASTNYADSVKGRFTISRDNAKNTVYLLMNSLKPEVTAVYYCAAKIFPKGDYWGQGTQVTVSS | high polyreactivity
22 | QVQLVESGGGLVQAGGSLRLSSAASGSIFFEYAMRWSRQAPGNEREWVASINRGGGSTYYADSVKGRFTISRDNAKNTVYLQMNSLKPEDTAVYYCAAQWKYRQSYLDYYWGQGTQVTVSS | low polyreactivity
23 | QVQLVESGGGLVQAGGSLRLSSAASGSIFGSYAMGWYRQAPGKERELVAAITSGGSTYADSVKGRFTISRDNAKNTVYLQMNSLKPEDTAVYYCNAKFYQSTSNLVQSEYDYWGQGTQVTVSS | low polyreactivity
24 | QVQLVESGGGLVQAGGSLRLSSAASGSIFGVNAMGVYRQAPGKERELVASITGGDSTNYADSVKGRFTISRDNAKNTVYFQMNSLKPEDTAVYYCAKDHYYRYCAAEFVTEYLYGFVYEYDSWGQGTQVTVSS | low polyreactivity
25 | QVQLVESGGGLVQAGGSLRLSSAASGSIFQDNAMGWNRQAPGKERELVAAISVSGGSTYYADSVKGRFTISRDNAKNTVYLQMNSLKPEDTAVYYCAARARGYAWTYDYWGQGTQVTVSS | high polyreactivity
26 | QVQLVESGGGLVQAGGSLRLSSAASGSIFRSNAMGWYRQAHGKERELVAAITSGTRTYYADSVKGRFTISRDNAKNTVYLQMNSLKPEDTAVFYCATKGSKYVRGYWGQGTQVTVSS | high polyreactivity
27 | QVQLVESGGGLVQAGGSLRLSSAASGSIFRSYTMGWYRQAPGKERELVAAISGRAGSTYYADAVKGRVTISRDNAKNTVYLQMNSLKPEDTAVYYCAVKLGGRSQSYYWGQGTQVTVSS | high polyreactivity
28 | QVQLVESGGGLVQAGGSLRLSSAASGSIFSYNVMGWYRQAPGKERELVAAISWNDGSTYYADSVKGRFTISRDNAKNTVYLQMNSLKPEDTAVYYCAAEYGRRWHNELDYWGQGTQVTVSS | low polyreactivity
29 | QVQLVESGGGLVQAGGSLRLSSAASGSIFTGSALGWYRQAPGKEREFFARITKRGVSTYYADSVKGRFTISRDKAKNTVYLHMNSLKPEDTAVYYCNADRKFPYGSYETHDYWGQGPQVTVSS | high polyreactivity
30 | QVQLVESGGGLVQAGGSLRLSSAASGSIFVPYAMGWYRQAPGKEREFVAAIYSGGGNTYYADSVKGRFTISRDNAKNTVYLQMNSLKPEDTAVYYCAAAYVYSSWSRYDYWGQGTQVTVSS | high polyreactivity
31 | QVQLVESGGGLVQAGGSLRLSSAASGSIFWYYAMGWYRQAPGKERELVADITIRGGRTYYADSVKGRFTISRDNAKNTVYFQMNSLKPEDTAVFYCAADWEYWGFGLYDYWGQGTQVTVSS | low polyreactivity
32 | QVQLVESGGGLVQAGGSLRLSSAASGSIFYQYAMGWYRQAPGKERQLVAAISRSGGSTYYAESVKGRFTISRDNAKNTVYLQMNSLIPEDTAVYYCATDIYSRWAGYKRSQYDYWGQGTQVTVSS | high polyreactivity
33 | QVQLVESGGGLVQAGGSLRLSSAASGSIYYPYAMGWYRQAPGKERELVAAIRNGGSTYYADSVKGRFTISRDNAKNTVYLQMNSLKPEETAVYYCNAVYTGPTYGPHRKENYYWGQGTQVTVSS | high polyreactivity
34 | QVQLVESGGGLVQAGGSLRLSSAASGSNFGYKAMGWYRQEPGKEREMVAAISYSGASTYYADSVKGRFTISRDNAKNTVYLQKHSLKPEDTAVYYCAAGWKRFSGRKHYYWGQGTQVTVSS | high polyreactivity
35 | QVQLVESGGGLVQAGGSLRLSSAASGSNFSRNTMGWYRQAPGKERELVAAITRGGSTDYADSVKGRFTISRDNAKNTVDLQMNSRKPEDTAVYYCAKKNPGWGKFDYWGQGTQVTVSS | low polyreactivity
36 | QVQLVESGGGLVQAGGSLRLSSAASGSTFFSNAMGWYRQAPGKERELVATIRFGGGSTYADSVKGRFTISRDNAKNTVYLQMNSLKPEDTAVYYCAADDSDKRYTRSWYGYWGQGTQVAVSS | low polyreactivity
37 | QVQLVESGGGLVQAGGSLRLSSAASGSTFKVNARGWYRQAPGKERELVAGITSSDSTKYADSVKGRFTISRDNAKNTVYLQMNSLKPEDTAVYYSAAETKFSRTSEGDYWGQGTQVTVSS | low polyreactivity
38 | QVQLVESGGGLVQAGGSLRLSSAASGSTFNLYAMGWYRQAPGKERELVAAISRRGGSTYYADSVKGRFTISRDNAKNTVYLQMNSLKPEDTAVYYCAAVVVTGQGDKYDYWGQGTQVTVSS | high polyreactivity
39 | QVQLVESGGGLVQAGGSLRLSSAASGSTFNSYAMGWYRQAPGKERELVAGITSRGTSTYYADSVKGRFTISRDNAKNTVYLQMNSLKPEDTAVYYCNKYHYWASPMNYWGHGTQVTVSS | high polyreactivity
40 | QVQLVESGGGLVQAGGSLRLSSAASGSTFRFNAMGWYRQAPGKERELVATISSGGRTYYADSVKGSFTISRDNAKNTVYLQMNSLKPEDTAVYYCAARTGYFLGRFDYWGQGTQVTVSS | high polyreactivity
